Test in all cases: NMR
The target in one series is LS2 RRM2 (Drosophila melanogaster, UniProt Q9W1T4 242-319).
In series [1] the target is T1, LS2 RRM1 (Drosophila melanogaster, UniProt Q9W1T4 110-204).
The target of series [2] is T1, LS2 RRM1. This is another data set of the same source.
For the next series, the target named is T2, LS2 linker-RRM2 (Drosophila melanogaster, UniProt Q9W1T4 204-325).
T2 sequence: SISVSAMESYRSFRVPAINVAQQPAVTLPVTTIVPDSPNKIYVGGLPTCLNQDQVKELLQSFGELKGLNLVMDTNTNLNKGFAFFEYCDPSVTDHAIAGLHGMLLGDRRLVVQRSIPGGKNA

Another series concerns the target LS2 RRM1,2 (Drosophila melanogaster, UniProt Q9W1T4 110-325).

Read-outs that look alike come from different tables or passages of the source.

As for GGGUGGUGGAGGGG (structured_RNA) [14-mer], the binding result in the series with LS2 RRM2 is “no binding”; in the series with LS2 RRM1 [1], “binds”.

As for GGUGGUGG (structured_RNA) [8-mer], in the series with LS2 RRM1 [1], the binding result is given as “binds”.

As for GGGGAGGAGGGGGGCGUAUGA (structured_RNA) [21-mer G4 RNA], the binding result with LS2 RRM1 [2], with LS2 RRM2, in the series with LS2 linker-RRM2 and with LS2 RRM1,2 was “binds” in each case.

As to CGUAUGA (ssRNA) [7-mer (3' end of 21-mer)], the binding result with LS2 RRM2 was “no binding”.
